B1: GFP-HMGA1 (WT) [human] / mCherry-LacI-CHFR [human] (parent)
chain 1: MSESSSKSSQPLASKQEKDGTEKRGRGRPRKQPPVSPGTALVGSQKEPSEVPTPKRPRGRPKGSKNKGAAKTRKTTTTPGRKPRGRPKKLEKEEEEGISQESSEEEQ
chain 2: MERPEEGKQSPPPQPWGRLLRLGAEEGEPHVLLRKREWTIGRRRGCDLSFPSNKLVSGDHCRIVVDEKSGQVTLEDTSTSGTVINKLKVVKKQTCPLQTGDVIYLVYRKNEPEHNVAYLYESLSEKQGMTQESFEANKENVFHGTKDTSGAGAGRGADPRVPPSSPATQVCFEEPQPSTSTSDLFPTASASSTEPSPAGRERSSSCGSGGGGISPKGSGPSVASDEVSSFASALPDRKTASFSSLEPQDQEDLEPVKKKMRGDGDLDLNGQLLVAQPRRNAQTVHEDVRAAAGKPDKMEETLTCIICQDLLHDCVSLQPCMHTFCAACYSGWMERSSLCPTCRCPVERICKNHILNNLVEAYLIQHPDKSRSEEDVQSMDARNKITQDMLQPKVRRSFSDEEGSSEDLLELSDVDSESSDISQPYVVCRQCPEYRRQAAQPPHCPAPEGEPGAPQALGDAPSTSVSLTTAVQDYVCPLQGSHALCTCCFQPMPDRRAEREQDPRVAPQQCAVCLQPFCHLYWGCTRTGCYGCLAPFCELNLGDKCLDGVLNNNSYESDILKNYLATRGLTWKNMLTESLVALQRGVFLLSDYRVTGDTVLCYCCGLRSFRELTYQYRQNIPASELPVAVTSRPDCYWGRNCRTQVKAHHAMKFNHICEQTRFKN

Variants of: B1
Experiment: LacI-LacO fluorescence colocalization assay (GFP-HMGA1 foci intensity at LacO array, ImageJ)
Conditions: with mCherry-LacI-CHFR [human]; U2OS-265 cells cotransfected for 24 h; parent: 1.5; read off a plot

Question: Which response does the source give for chain 1 E50Q here?
Answer: 1
